Experimental data from patent US20170145086A1 (VISTERRA, published 2017).

T1: human Tweak (TNFSF12; Abcam) (human, UniProt O43508 94-249, limits assumed)
T1 sequence (looked up): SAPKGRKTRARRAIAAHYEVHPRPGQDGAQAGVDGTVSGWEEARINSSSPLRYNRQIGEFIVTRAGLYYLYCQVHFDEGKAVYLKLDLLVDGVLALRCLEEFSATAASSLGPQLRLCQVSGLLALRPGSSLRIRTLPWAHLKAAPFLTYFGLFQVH

T2: HA-GCN4 hAPRIL (amino acid residues 105-250) (human, UniProt O75888 105-250)
T2 construct: Bought (R&D Systems); also called HA-tagged GCN4 human APRIL; HA-GCN4-huAPRIL; not shown: N-terminal HA tag; GCN4 isoleucine zipper oligomerization domain
T2 sequence: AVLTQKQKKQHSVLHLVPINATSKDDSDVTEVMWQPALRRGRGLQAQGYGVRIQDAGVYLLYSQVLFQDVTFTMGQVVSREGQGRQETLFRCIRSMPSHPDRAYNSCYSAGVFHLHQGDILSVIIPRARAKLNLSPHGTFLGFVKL

T3: HA-GCN4 mAPRIL (amino acid residues 96-241) (mouse, UniProt Q9D777 96-241, Assembles as a homotrimer through the GCN4 zipper; one protomer is given.)
T3 construct: Bought (R&D Systems); also called HA-tagged mouse APRIL (R&D Systems); recombinant mouse APRIL; not shown: N-terminal HA tag and GCN4 isoleucine-zipper trimerisation domain, with any linker, of the bought R&D Systems protein
T3 sequence: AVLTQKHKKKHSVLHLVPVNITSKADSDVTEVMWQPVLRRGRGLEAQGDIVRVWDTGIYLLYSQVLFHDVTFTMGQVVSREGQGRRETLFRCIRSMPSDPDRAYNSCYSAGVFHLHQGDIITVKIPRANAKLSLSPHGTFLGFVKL


Columns and labels:
[1] = target: T1, human Tweak (TNFSF12; Abcam); assay: indirect ELISA, cytokine coated
[2] = target: T2, HA-GCN4 hAPRIL (amino acid residues …); assay: indirect ELISA on human APRIL; column head prints IC50 (pM), legend paragraph 725 calls the values EC50
Description: Purified antibodies were further characterized for APRIL binding, APRIL species cross reactivity (human APRIL vs. mouse APRIL), and receptor blocking activity using TACI-Fc. For binding, an APRIL-based indirect ELISA was used to determine by first approximation the relative affinity of purified anti-APRIL antibodies to either human APRIL or mouse APRIL. ELISA method was as generally described above. […] Blocking and wash steps were completed as described. Binding of anti-APRIL antibodies to APRIL was quantified using an 8 point dilution of test antibody that spanned over a four log scale. Antibody binding to APRIL was detected using a rabbit anti-mouse IgG (H+L)-HRP conjugate (Jackson ImmunoResearch Laboratories). Antibody binding data was analyzed by non-linear regression analysis using a 3 parameter fit to determine max binding and apparent EC₅₀ values. […] Mouse specific antibody Apry-1-1 (Adipogen) was likewise used for quantification of antibody binding to mouse APRIL.

[3] = target: T2, HA-GCN4 hAPRIL (amino acid residues …); assay: blocking ELISA; blocked: human APRIL binding to human BCMA-Fc; parameters: concentration or dose not given beside the values
Protocol: FIGS. 19A-19B depict the antibody inhibition of APRIL binding to TNFSF receptors TACI (FIG. 19A) and BCMA (FIG. 19B). Assay is based on blocking ELISA using recombinant human APRIL (R&D Systems) and Human TACI-Fc. Inhibition was analyzed by non-linear regression using a four parameter fit.
(§1) Recombinant TACI-Fc or BCMA-Fc was coated on 96 well plates in 0.1 M carbonate-bicarbonate buffer (pH 9.6), overnight at 4° C. Plates were washed three times with 1×PBST (PBS+0.025% Tween 20) followed by blocking with 1% BSA in 1×PBS, 37° C. for 1 hour. All subsequent wash steps were carried out with 1×PBST. To assess antibody blocking, either 15 ng/mL or 50 ng/mL HA-GCN4-huAPRIL was preincubated with varying antibody concentrations ranging from 0.03-30 μg/mL in binding buffer comprised of 1% BSA and 0.025% Tween-20 in 1×PBS. Preincubation was carried out at 30° C. for 1 hour with mixing. Antibody-APRIL premix with 50 ng/mL APRIL or 15 ng/mL APRIL was then added to TACI-Fc coated or BCMA-Fc coated plates, respectively, and incubated for an additional hour at 30° C. HA-tagged APRIL binding to either receptor was quantified using a goat polyclonal anti-HA tag-HRP antibody (Abcam) added at a 1:10000 dilution followed by colorimetric development using 100 μl/well of freshly prepared TMB substrate (KPL) carried out for up to 30 minutes at room temperature before quenching enzymatic reaction by the addition of 1N sulfuric acid. ELISA signal was quantified by absorbance at 450 nm. ELISA data was analyzed by non-linear regression. IC₅₀ values were calculated based on a 4 parameter fit of antibody titration curves. […] Non-blocking antibodies Aprly-1 or Aprly-5 (Enzo Biosciences) were used as negative controls. Mouse specific, blocking antibody aprily-1-1 (Adipogen) was generally used as a positive control in experiments using mouse APRIL (HA-GCN4-mAPRIL).

[4] = target: T2, HA-GCN4 hAPRIL (amino acid residues …); assay: blocking ELISA, 4-parameter fit; blocked: human APRIL binding to human TACI-Fc
Protocol: as §1

[5] = target: T3, HA-GCN4 mAPRIL (amino acid residues …); assay: blocking ELISA; blocked: mouse APRIL binding to BCMA

Row | binding result [1] | EC50 [2] [nM] | % Inhibition [3] [%] | IC50 [4] [nM] | IC50 (read off the curve) [5] [µg/mL] | binding result [5] | Binder
1 | no binding (tested: 10 µg/ml (p-1128)) | 0.0126 | 93 |  |  |  | 4237 (antibody, V domains shown, also called monoclonal antibody 4237) VH: QAHLKESGPGLVAPSQSLSITCTVSGFSLTDYDVHWVRQSPGKGLEWLGVIWNDGSTDYNTAFISRLTISKDNSKSQVFFKMNSLQADDTAIYYCARNWYGGYWFAYWGQGTLVTVSA VL: DIQMTQSPASLSASAGETVTITCRSSENIYSYLAWYQQKQGKSPQLLVYNANALAEGVPSRFSGSGSVTQFSLKINSLQPEDFGSYYCQHHYGTPFTFGSGTKLEIK
2 | no binding (tested: 10 µg/ml (p-1128)) | 0.005 | 99 | 0.74 |  |  | monoclonal antibody 2218 (antibody, mouse IgG2, V domains shown) VH: DVQLQESGPGLVKPSQSLSLTCSVTGYSITSGYYWNWIRQFPGNKLEWMGYISYDGYNNYNPSLKNRISITRDTSKNQFFLKLNSVTTEDTATYYCANYYDYEDWYFGVWGTGTTVTVSS VL: DIVLTQSPASLAMSLGKRATISCRASESVSIIGTNSIHWYQQKPGQPPKLLIYHASNLETGVPARFSGSGSRTDFTLTIDPVEEDDVAIYYCLQSRKIPYTFGGGTKLEIK
3 | no binding (tested: 10 µg/ml (p-1128)) | 0.0129 | 98 |  | ~0.3 |  | monoclonal antibody 4540 (antibody, V domains shown, mouse-derived) VH: QVQLQQSGPELVKPGASVKISCKASGYTFADYYINWVKQRPGQGLEWIGWIFPGSGSTYYNEKFKGKATLTVDKSSSTAYMLLSSLTSEDSAVYFCARGDSGRAMDYWGQGTSVTVSS VL: DIQMTQSPSSLSASLGGKVTITCKASQDINKYIAWYQHKPGKGPRLLIHYTSTLQSGIPSRFSGSGSGRDYSFSISNLEPEDNATYYCLQYDNLLTFGAGTKLELK
4 | no binding (tested: 10 µg/ml (p-1128)) | 0.0175 | 96 |  | ~0.06 |  | monoclonal antibody 3833 (antibody, V domains shown, mouse-derived) VH: QVQLQQSGAELVRPGTSVKMSCKAAGYTFTNYWIGWVKQRPGHGLEWIGDIYPGGIGGGYTKYNEKFKGKATLTADTSSSTAYMQLGSLTSEDSAIYFCSRSETGRAMDYWGQGTSVTVSS VL: DIQMTQSPSSLSASLGGKVTITCKASQDINKYIAWYQHKPGKGPRLLIHYTSTLKPGIPSRFSGSGSGRDYSFSISDLEPEDIATYYCLQYDNLNTFGGGTKLEIK
5 | no binding (tested: 10 µg/ml (p-1128)) | 0.0489 | 37 | 4.95 | ~0.3 |  | monoclonal antibody 3530 (antibody, mouse IgG2, V domains shown) VH: QVQLQQSGAELVRPGASVKLSCKASGYTFTDHEMHWVRQTPVHGLEWIGVIDPDTGDTTYNQKFKGKATLTADKSSSTAYMDLRSLTSEDSAVFYCTRWTGGDYWGHGTTLTVSS VL: DAVMTQTPLSLSVTIGQPASISCKSSQSLLYSDGKTYLNWFQQRPGQSPKRLMYQVSKLDPGIPDRFSGSGSETDFTLKISRVEAEDLGVYYCLQGTYYPYTFGSGTKLEIK
6 | no binding (tested: 10 µg/ml (p-1128)) | 0.0166 | 100 |  |  | binds | monoclonal antibody 3631 (antibody, V domains shown, mouse-derived) VH: EIQLQQSGPELVKPGASVKVSCKASGYSFTDYNIYWVKQSHGKSLEWIGYIDPSNGGPGYNQKFRGKATLTVDKSSSTAFLHLNSLTSEDSAVYYCARRDNYGSGTMDYWGQGTSVTVSS VL: DIVMTQSQKFMSTSVGDRVSITCKASQNVGTDVSWYQQKPGKSPKPLIYWASNRFTGVPDRFIGSGSGTDFTLTISNVQSEDLADYFCEQYSIYPLTFGAGTKLELK
7 | no binding (tested: 10 µg/ml (p-1128)) | 0.0072 | 100 |  |  | binds | monoclonal antibody 3732 (antibody, V domains shown, mouse-derived) VH: EIQLQQSGPELVKPGASVKVSCKASGYSFTDDNMYWVKQSHGKSLEWIGYIDPLNGGTGYNQKFKGKATLTVDKSSSTAFLHLNSLTSEDSAVYYCARRDNYATGTMDYWGQGTSVTVSS VL: DIVMTQSQKFMSTSVGDRVSITCKASKNVGTDVSWYQQKPGKSPKPLIYWASNRFTGVPDRFTGSGSGTDFTLTINNVQSEDLADYFCEQYSSYPLTFGAGTKLELK
